The record followed here is patent US10745460B2, “Peptides and combination of peptides for use in immunotherapy against various tumors” (Immatics Biotechnologies GmbH, priority 2015, dated 2020).

The target of the test is HLA-A*02:01 (Homo sapiens, UniProt P04439, D140Y/D185E/D98H/E176V/E277Q/G131W/G231S/I119V/I121R/I166T/I218V/L300P/L318F/N151K/N90K/P208A/P217A/Q86G/Q94H/R138H/R169H/T345S). In words: MHC binding assay: UV-ligand exchange with β2m ELISA (peptide exchange yield). To be noted: binding to HLA-A*02:01 evaluated by peptide exchange yield (UV-ligand exchange, β2m ELISA). The method, boiled down: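 Peptide–MHC complexes formed by UV-ligand exchange, cleaving a UV-sensitive peptide so the test peptide can bind. Exchange yield measured by ELISA: complexes captured on streptavidin-coated wells, diluted 100-fold, detected with HRP anti-β2m (1 h, 37 °C) and TMB at 450 nm, against refolded HLA-A*02:01/MLA-001 standards (15-500 ng/ml).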
Background: An ELISA detects its analyte on a solid surface through an enzyme-linked reagent.
As to “212 (MTLSEIHAV; listed as Homo sapiens) [compound 212]”, the Peptide exchange result is given as “++ (≥20% = ++)”.

Turning to “213 (ILAVDGVLSV; listed as Homo sapiens) [compound 213]”, the Peptide exchange entry is “+++ (≥50 = +++)”. In the case of “214 (ALFETLIQL; listed as Homo sapiens) [compound 214]” it was “+++ (≥50 = +++)”; in that of “215 (QIADIVTSV; listed as Homo sapiens) [compound 215]”, “++ (≥20% = ++)”. In the case of “216 (ALSTVTPRI; listed as Homo sapiens) [compound 216]” it was “++ (≥20% = ++)”. “217 (LLWPSSVPA; listed as Homo sapiens) [compound 217]”: the Peptide exchange entry was “+++ (≥50 = +++)”. In the case of “218 (SLTGANITV; listed as Homo sapiens) [compound 218]” it was “+++ (≥50 = +++)”. As to “219 (GVVPTIQKV; listed as Homo sapiens) [compound 219]”, the Peptide exchange entry is recorded as “++ (≥20% = ++)”.

In the case of “220 (ALSELERVL; listed as Homo sapiens) [compound 220]”, the Peptide exchange entry was “+++ (≥50 = +++)”.

On to “221 (IMLNSVEEI; listed as Homo sapiens) [compound 221]”, for which the Peptide exchange entry is given as “++ (≥20% = ++)”. Consider “222 (LLTGVFAQL; listed as Homo sapiens) [compound 222]”, for which the Peptide exchange result is given as “++ (≥20% = ++)”. Regarding “223 (ALHPVQFYL; listed as Homo sapiens) [compound 223]”, the Peptide exchange result is given as “+++ (≥50 = +++)”.

In the case of “224 (LLFDWSGTGRADA; listed as Homo sapiens) [compound 224]”, the Peptide exchange result is “+++ (≥50 = +++)”.

“225 (FLPQPVPLSV; listed as Homo sapiens) [compound 225]”: the Peptide exchange result is given as “+++ (≥50 = +++)”. Take “226 (SLAGNLQEL; listed as Homo sapiens) [compound 226]”: the Peptide exchange result is given as “+++ (≥50 = +++)”. With “227 (SEMEELPSV; listed as Homo sapiens) [compound 227]”, the Peptide exchange result is recorded as “+ (≥10% = +)”. With “228 (SLLELDGINLRL; listed as Homo sapiens) [compound 228]”, the Peptide exchange result is listed as “+++ (≥50 = +++)”. With “229 (YLYELEHAL; listed as Homo sapiens) [compound 229]”, the Peptide exchange result is recorded as “++ (≥20% = ++)”.

On to “230 (KLLNMIFSI; listed as Homo sapiens) [compound 230]”, for which the Peptide exchange entry is recorded as “+++ (≥50 = +++)”.

Turning to “231 (LLDDIFIRL; listed as Homo sapiens) [compound 231]”, the Peptide exchange entry was “+++ (≥50 = +++)”.

Take “233 (SLFESLEYL; listed as Homo sapiens) [compound 233]”: the Peptide exchange result is recorded as “+++ (≥50 = +++)”.

On to “234 (VLLNEILEQV; listed as Homo sapiens) [compound 234]”, for which the Peptide exchange result is recorded as “++++ (≥75% = ++++)”. For “235 (SLLNQPKAV; listed as Homo sapiens) [compound 235]”, the Peptide exchange result was “++ (≥20% = ++)”. For “236 (KMSELQTYV; listed as Homo sapiens) [compound 236]”, the Peptide exchange entry is listed as “+++ (≥50 = +++)”. In the case of “237 (ALLEQTGDMSL; listed as Homo sapiens) [compound 237]” it was “+++ (≥50 = +++)”. As to “238 (HLQEKLQSL; listed as Homo sapiens) [compound 238]”, the Peptide exchange entry is on record as “++ (≥20% = ++)”. In the case of “239 (VIIKGLEEITV; listed as Homo sapiens) [compound 239]” it was “+++ (≥50 = +++)”; in that of “241 (KQFEGTVEI; listed as Homo sapiens) [compound 241]”, “+++ (≥50 = +++)”; in that of “242 (KLQEEIPVL; listed as Homo sapiens) [compound 242]”, “+++ (≥50 = +++)”. As to “243 (GLAEFQENV; listed as Homo sapiens) [compound 243]”, the Peptide exchange entry was “++ (≥20% = ++)”. “244 (NVAEIVIHI; listed as Homo sapiens) [compound 244]”: the Peptide exchange entry is recorded as “+++ (≥50 = +++)”.

Consider “245 (ALLEEEEGV; listed as Homo sapiens) [compound 245]”, for which the Peptide exchange result was “++ (≥20% = ++)”. As to “246 (ALAGIVTNV; listed as Homo sapiens) [compound 246]”, the Peptide exchange entry is “+++ (≥50 = +++)”.

For the substance “247 (NLLIDDKGTIKL; listed as Homo sapiens) [compound 247]”, the Peptide exchange entry is reported as “++ (≥20% = ++)”. With “248 (VLMQDSRLYL; listed as Homo sapiens) [compound 248]” the entry was “+++ (≥50 = +++)”; with “249 (YLYQILQGI; listed as Homo sapiens) [compound 249]”, “+++ (≥50 = +++)”. For the substance “250 (LMQDSRLYL; listed as Homo sapiens) [compound 250]”, the Peptide exchange entry is listed as “+++ (≥50 = +++)”. With “251 (LLWGNLPEI; listed as Homo sapiens) [compound 251]” the entry was “+++ (≥50 = +++)”. In the case of “252 (SLMEKNQSL; listed as Homo sapiens) [compound 252]”, the Peptide exchange entry is on record as “++ (≥20% = ++)”. For the substance “253 (KLLAVIHEL; listed as Homo sapiens) [compound 253]”, the Peptide exchange result is “+++ (≥50 = +++)”. “254 (ALGDKFLLRV; listed as Homo sapiens) [compound 254]”: the Peptide exchange result is “++ (≥20% = ++)”.

For the substance “255 (FLMKNSDLYGA; listed as Homo sapiens) [compound 255]”, the Peptide exchange result was “+++ (≥50 = +++)”. In the case of “256 (FLNDIFERI; listed as Homo sapiens) [compound 256]” it was “+++ (≥50 = +++)”; in that of “257 (KLIDHQGLYL; listed as Homo sapiens) [compound 257]”, “+++ (≥50 = +++)”; in that of “258 (QLVQRVASV; listed as Homo sapiens) [compound 258]”, “++ (≥20% = ++)”.

For the substance “259 (GPGIFPPPPPQP; listed as Homo sapiens) [compound 259]”, the Peptide exchange entry is on record as “+ (≥10% = +)”. With “260 (ALNESLVEC; listed as Homo sapiens) [compound 260]” the entry was “+++ (≥50 = +++)”; with “261 (GLAALAVHL; listed as Homo sapiens) [compound 261]”, “+++ (≥50 = +++)”. For the substance “262 (LLLEAVWHL; listed as Homo sapiens) [compound 262]”, the Peptide exchange result is “+++ (≥50 = +++)”. Consider “263 (SIIEYLPTL; listed as Homo sapiens) [compound 263]”, for which the Peptide exchange result is on record as “+++ (≥50 = +++)”. For “264 (TLHDQVHLL; listed as Homo sapiens) [compound 264]”, the Peptide exchange entry is “++ (≥20% = ++)”. Regarding “265 (FLLDKPQDLSI; listed as Homo sapiens) [compound 265]”, the Peptide exchange result was “+++ (≥50 = +++)”.

“266 (FLLDKPQDL; listed as Homo sapiens) [compound 266]”: the Peptide exchange entry is reported as “++ (≥20% = ++)”. In the case of “267 (YLLDMPLWYL; listed as Homo sapiens) [compound 267]” it was “+++ (≥50 = +++)”; in that of “268 (SLDKDIVAL; listed as Homo sapiens) [compound 268]”, “++ (≥20% = ++)”. Take “269 (GLLDCPIFL; listed as Homo sapiens) [compound 269]”: the Peptide exchange result is recorded as “++++ (≥75% = ++++)”. With “270 (TLLTFFHEL; listed as Homo sapiens) [compound 270]” the entry was “+++ (≥50 = +++)”.

As for “271 (VLIEYNFSI; listed as Homo sapiens) [compound 271]”, the Peptide exchange result was “+++ (≥50 = +++)”. Consider “272 (FVMEGEPPKL; listed as Homo sapiens) [compound 272]”, for which the Peptide exchange entry is reported as “++ (≥20% = ++)”.

For “273 (SLNKQIETV; listed as Homo sapiens) [compound 273]”, the Peptide exchange result is listed as “++ (≥20% = ++)”. In the case of “274 (TLYNPERTITV; listed as Homo sapiens) [compound 274]”, the Peptide exchange entry is “+++ (≥50 = +++)”.

With “275 (AVPPPPSSV; listed as Homo sapiens) [compound 275]”, the Peptide exchange result is reported as “++ (≥20% = ++)”. Regarding “276 (RMPTVLQCV; listed as Homo sapiens) [compound 276]”, the Peptide exchange entry was “+++ (≥50 = +++)”.

For the substance “277 (KLQEELNKV; listed as Homo sapiens) [compound 277]”, the Peptide exchange entry is “+++ (≥50 = +++)”. With “278 (VLEDKVLSV; listed as Homo sapiens) [compound 278]”, the Peptide exchange result is on record as “+++ (≥50 = +++)”. With “279 (VLMDEGAVLTL; listed as Homo sapiens) [compound 279]” the entry was “++ (≥20% = ++)”; with “280 (HLWGHALFL; listed as Homo sapiens) [compound 280]”, “+++ (≥50 = +++)”. Regarding “281 (LLLESDPKVYSL; listed as Homo sapiens) [compound 281]”, the Peptide exchange result is listed as “++ (≥20% = ++)”.

For “282 (SLYALHVKA; listed as Homo sapiens) [compound 282]”, the Peptide exchange result is recorded as “++ (≥20% = ++)”. Consider “283 (ALSELLQQV; listed as Homo sapiens) [compound 283]”, for which the Peptide exchange result is given as “+++ (≥50 = +++)”.

In the case of “284 (KLMDPGSLPPL; listed as Homo sapiens) [compound 284]”, the Peptide exchange result is “++ (≥20% = ++)”.
